Tests used:
[1] = system: histone H1 (Homo sapiens); assay: FCS; conditions: poly(ADP-ribose), 50 mM Tris pH 7.4, 150 mM NaCl, 3 mM DTT, 0.05% Tween20, 1 h room temperature, 10 nM nucleic acid
p53WT (Homo sapiens) = p53WT (Homo sapiens) (UniProt P04637); assay: FCS; conditions: poly(ADP-ribose), 50 mM Tris pH 7.4, 150 mM NaCl, 3 mM DTT, 0.05% Tween20, 1 h room temperature, 10 nM nucleic acid
Sequence of p53WT (Homo sapiens) (P04637 whole entry): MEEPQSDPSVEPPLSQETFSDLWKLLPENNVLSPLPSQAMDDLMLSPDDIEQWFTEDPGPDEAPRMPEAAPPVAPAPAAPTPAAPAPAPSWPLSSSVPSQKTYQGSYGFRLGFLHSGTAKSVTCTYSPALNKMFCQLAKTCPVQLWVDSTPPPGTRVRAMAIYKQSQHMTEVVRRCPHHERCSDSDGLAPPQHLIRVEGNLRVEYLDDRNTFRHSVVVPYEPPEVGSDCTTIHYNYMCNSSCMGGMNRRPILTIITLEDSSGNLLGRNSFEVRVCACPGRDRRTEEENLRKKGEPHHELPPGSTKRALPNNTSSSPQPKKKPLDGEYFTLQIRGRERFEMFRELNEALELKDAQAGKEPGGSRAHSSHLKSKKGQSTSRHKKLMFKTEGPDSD

PARHB 20-mer
Kd ([1]; hyperbranched): 8 nM

PARHB 30-mer
Kd (p53WT (Homo sapiens); hyperbranched): 99 nM

PARHB 40-mer
Kd (p53WT (Homo sapiens); hyperbranched): 41 nM

PARHB 50-mer
Kd (p53WT (Homo sapiens); hyperbranched): 30 nM

PARWT 20-mer
Kd ([1]; also printed as 4 nM in the comparison with PARHB, linear): 5 nM

PARWT 30-mer
Kd (p53WT (Homo sapiens); linear): 28 nM

PARWT 40-mer
Kd (p53WT (Homo sapiens); linear): 7 nM

PARWT 50-mer
Kd (p53WT (Homo sapiens); first binding event, no saturation up to 5 uM, linear): 8 nM

From paper PMC9881148
